Test results from the RNAGym collection of RNA variant scans (doi:10.1093/molbev/msab373).

B1: Azoarcus group I ribozyme (parent)
chain: GUGCCUUGCGCCGGGAAACCACGCAAGGGAUGGUGUCAAAUUCGGCGAAACCUAAGCGCCCGCCCGGGCGUAUGGCAACGCCGAGCCAAGCUUCGGCGCCUGCGCCGAUGAAGGUGUAGAGACUAGACGGCACCCACCUAAGGCAAACGCUAUGGUGAAGGCAUAGUCCAGGGAGUGGCGAAAGUCACACAAACCGG

Variants of: B1
Test: reverse-splicing fitness (ratio to wild type); higher = more active; in vitro selection; Mg2+ level not given
Procedure, shortened: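 An in vitro group I ribozyme library with randomized positions was T7-transcribed and gel-purified. In triplicate, 10 pmol RNA in EPPS pH 7.5 was reacted with 50 pmoles of a 30-nt RNA substrate for 1 h at 37 °C across several added MgCl2 levels (1–48 mM), then stopped with EDTA. Products were reverse transcribed from a substrate-complementary primer, PCR-amplified and sequenced (HiSeq 4000). Fitness is a variant's read proportion after selection over that before, normalised to wild type.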

Q: With C82U A111G A120G C150U C169A U176G as the variant, how does the reverse-splicing fitness read?
A: 0.00504

Q: Which reverse-splicing fitness does the source give for C82U A111G A120G C150U C169A U176A here?
A: 0.0143

Q: Which reverse-splicing fitness does the source give for C82U A111G A120G C150U C169A U176C here?
A: 0.0129

Q: Which reverse-splicing fitness does the source give for C82U A111G A120C C150U C169A here?
A: 0.00965

Q: For C82U A111G A120C C150U C169G, which reverse-splicing fitness is on record?
A: 0.00986

Q: For C82U A111G A120C C150U C169U, which reverse-splicing fitness is on record?
A: 0.0124

Q: For C82U A111G A120G A145G C150U C169U U176A, which reverse-splicing fitness is on record?
A: 0.0187

Q: For C82U A111G A120G A145G C150U C169U U176G, which reverse-splicing fitness is on record?
A: 0.00525

Q: Which reverse-splicing fitness does the source give for C82U A111G A120G A145G C150U C169U U176C here?
A: 0.0162

Q: With C82U A111G A120G A145C U176A as the variant, how does the reverse-splicing fitness read?
A: 0.0105

Q: Which reverse-splicing fitness does the source give for C82U A111G A120G A145C U176G here?
A: 0.00368

Q: With C82U A111G A120G A145C U176C as the variant, how does the reverse-splicing fitness read?
A: 0.00983

Q: Which reverse-splicing fitness does the source give for C82U A111G A120C A145U C150U C169A U176C here?
A: 0.00827

Q: Which reverse-splicing fitness does the source give for C82U A111G A120C A145U C150U C169A U176A here?
A: 0.0106

Q: Which reverse-splicing fitness does the source give for C82U A111G A120C A145U C150U C169A U176G here?
A: 0.00488

Q: With C82U A111G A120G A145U C150A C169U U176A as the variant, how does the reverse-splicing fitness read?
A: 0.019

Q: Which reverse-splicing fitness does the source give for C82U A111G A120G A145U C150A C169U U176C here?
A: 0.0142

Q: Which reverse-splicing fitness does the source give for C82U A111G A120G A145U C150A C169U U176G here?
A: 0.0048

Q: For C82U A111G A120G C150U C169G U176G, which reverse-splicing fitness is on record?
A: 0.00447

Q: Which reverse-splicing fitness does the source give for C82U A111G A120G C150U C169G U176A here?
A: 0.0144

Q: For C82U A111G A120G C150U C169G U176C, which reverse-splicing fitness is on record?
A: 0.0174

Q: For C82U A111G A120C C150A C169U, which reverse-splicing fitness is on record?
A: 0.0114

Q: With C82U A111G A120C C150A C169G as the variant, how does the reverse-splicing fitness read?
A: 0.0102

Q: With C82U A111G A120C C150A C169A as the variant, how does the reverse-splicing fitness read?
A: 0.0107

Q: For C82U A111G A120G C150G C169G, which reverse-splicing fitness is on record?
A: 0.00749

Q: For C82U A111G A120G C150G C169U, which reverse-splicing fitness is on record?
A: 0.00822

Q: Which reverse-splicing fitness does the source give for C82U A111G A120G C150G C169A here?
A: 0.00895

Q: With C82U A111G A120G A145C C150U C169A U176G as the variant, how does the reverse-splicing fitness read?
A: 0.00395

Q: For C82U A111G A120G A145C C150U C169A U176C, which reverse-splicing fitness is on record?
A: 0.00548

Q: Which reverse-splicing fitness does the source give for C82U A111G A120G A145C C150U C169A U176A here?
A: 0.0104

Q: With C82U A111G A120G A145U C150G C169U as the variant, how does the reverse-splicing fitness read?
A: 0.00832

Q: For C82U A111G A120G A145U C150G C169A, which reverse-splicing fitness is on record?
A: 0.00861

Q: With C82U A111G A120G A145U C150G C169G as the variant, how does the reverse-splicing fitness read?
A: 0.00704

Q: For C82U A111G A120G A145G U176C, which reverse-splicing fitness is on record?
A: 0.0192

Q: Which reverse-splicing fitness does the source give for C82U A111G A120G A145G U176A here?
A: 0.0123

Q: For C82U A111G A120G A145G U176G, which reverse-splicing fitness is on record?
A: 0.00429

Q: With C82U A111G A120C A145U C150U C169A as the variant, how does the reverse-splicing fitness read?
A: 0.00793

Q: With C82U A111G A120C A145U C150U C169G as the variant, how does the reverse-splicing fitness read?
A: 0.008

Q: With C82U A111G A120C A145U C150U C169U as the variant, how does the reverse-splicing fitness read?
A: 0.00989

Q: With C82U A111G A120G A145U C150U as the variant, how does the reverse-splicing fitness read?
A: 0.0126

Q: Which reverse-splicing fitness does the source give for C82U A111G A120G A145U C150A here?
A: 0.00726

Q: Which reverse-splicing fitness does the source give for C82U A111G A120G A145U C150G here?
A: 0.00645

Q: Which reverse-splicing fitness does the source give for C82U A111G A120G A145U C150A U176A here?
A: 0.00974

Q: Which reverse-splicing fitness does the source give for C82U A111G A120G A145U C150A U176C here?
A: 0.013

Q: Which reverse-splicing fitness does the source give for C82U A111G A120G A145U C150A U176G here?
A: 0.00406

Q: With C82U A111G A120C C150G C169G U176G as the variant, how does the reverse-splicing fitness read?
A: 0.00467

Q: Which reverse-splicing fitness does the source give for C82U A111G A120C C150G C169G U176A here?
A: 0.00718

Q: With C82U A111G A120C C150G C169G U176C as the variant, how does the reverse-splicing fitness read?
A: 0.00429

Q: With C82U A111G A120G A145G C169G U176A as the variant, how does the reverse-splicing fitness read?
A: 0.0211

Q: Which reverse-splicing fitness does the source give for C82U A111G A120G A145G C169G U176G here?
A: 0.00424

Q: With C82U A111G A120G A145G C169G U176C as the variant, how does the reverse-splicing fitness read?
A: 0.0289

Q: For C82U A111G A120G A145G C169A U176A, which reverse-splicing fitness is on record?
A: 0.0215

Q: With C82U A111G A120G A145G C169A U176G as the variant, how does the reverse-splicing fitness read?
A: 0.00377

Q: For C82U A111G A120G A145G C169A U176C, which reverse-splicing fitness is on record?
A: 0.0277

Q: Which reverse-splicing fitness does the source give for C82U A111G A120C C150U U176C here?
A: 0.0218

Q: With C82U A111G A120C C150U U176G as the variant, how does the reverse-splicing fitness read?
A: 0.00651

Q: With C82U A111G A120C C150U U176A as the variant, how does the reverse-splicing fitness read?
A: 0.0148

Q: For C82U A111G A120G A145C C150G U176A, which reverse-splicing fitness is on record?
A: 0.00404

Q: For C82U A111G A120G A145C C150G U176C, which reverse-splicing fitness is on record?
A: 0.00614

Q: Which reverse-splicing fitness does the source give for C82U A111G A120G A145C C150G U176G here?
A: 0.00261

Q: With C82U A111G A120C C150A C169A U176G as the variant, how does the reverse-splicing fitness read?
A: 0.0042

Q: With C82U A111G A120C C150A C169A U176C as the variant, how does the reverse-splicing fitness read?
A: 0.0156

Q: With C82U A111G A120C C150A C169A U176A as the variant, how does the reverse-splicing fitness read?
A: 0.0215

Q: For C82U A111G A120G A145G C150U U176G, which reverse-splicing fitness is on record?
A: 0.00622

Q: Which reverse-splicing fitness does the source give for C82U A111G A120G A145G C150U U176A here?
A: 0.00859

Q: With C82U A111G A120G A145G C150U U176C as the variant, how does the reverse-splicing fitness read?
A: 0.0166

Q: Which reverse-splicing fitness does the source give for C82U A111G A120G A145G C150A U176G here?
A: 0.00593

Q: For C82U A111G A120G A145G C150A U176C, which reverse-splicing fitness is on record?
A: 0.0196

Q: For C82U A111G A120G A145G C150A U176A, which reverse-splicing fitness is on record?
A: 0.0088

Q: With C82U A111G A120G A145G C150G C169A U176G as the variant, how does the reverse-splicing fitness read?
A: 0.00756

Q: For C82U A111G A120G A145G C150G C169A U176A, which reverse-splicing fitness is on record?
A: 0.0123

Q: For C82U A111G A120G A145G C150G C169A U176C, which reverse-splicing fitness is on record?
A: 0.0117

Q: Which reverse-splicing fitness does the source give for C82U A111G A120G A145C C169U U176C here?
A: 0.0105

Q: Which reverse-splicing fitness does the source give for C82U A111G A120G A145C C169U U176G here?
A: 0.00353

Q: Which reverse-splicing fitness does the source give for C82U A111G A120G A145C C169U U176A here?
A: 0.0189

Q: Which reverse-splicing fitness does the source give for C82U A111G A120G A145C C150A C169A U176A here?
A: 0.0114

Q: For C82U A111G A120G A145C C150A C169A U176C, which reverse-splicing fitness is on record?
A: 0.00481

Q: With C82U A111G A120G A145C C150A C169A U176G as the variant, how does the reverse-splicing fitness read?
A: 0.00425

Q: With C82U A111G A120C C169A U176G as the variant, how does the reverse-splicing fitness read?
A: 0.00425

Q: With C82U A111G A120C C169A U176C as the variant, how does the reverse-splicing fitness read?
A: 0.0132

Q: Which reverse-splicing fitness does the source give for C82U A111G A120C C169A U176A here?
A: 0.014

Q: With C82U A111G A120G A145C C150U U176G as the variant, how does the reverse-splicing fitness read?
A: 0.00386

Q: Which reverse-splicing fitness does the source give for C82U A111G A120G A145C C150U U176A here?
A: 0.0079

Q: For C82U A111G A120G A145C C150U U176C, which reverse-splicing fitness is on record?
A: 0.00908
